Test system: ETAA1-ATR activating domain (ETAA1-AAD)
Sequence (chain, as listed by the source): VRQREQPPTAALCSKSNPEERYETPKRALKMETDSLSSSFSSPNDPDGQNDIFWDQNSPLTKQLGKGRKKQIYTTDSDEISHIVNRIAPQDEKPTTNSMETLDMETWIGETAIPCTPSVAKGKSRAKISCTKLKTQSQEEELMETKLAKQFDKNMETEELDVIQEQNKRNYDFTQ

Sequence of ATR (ATM and Rad3-related kinase) (chain, as listed by the source): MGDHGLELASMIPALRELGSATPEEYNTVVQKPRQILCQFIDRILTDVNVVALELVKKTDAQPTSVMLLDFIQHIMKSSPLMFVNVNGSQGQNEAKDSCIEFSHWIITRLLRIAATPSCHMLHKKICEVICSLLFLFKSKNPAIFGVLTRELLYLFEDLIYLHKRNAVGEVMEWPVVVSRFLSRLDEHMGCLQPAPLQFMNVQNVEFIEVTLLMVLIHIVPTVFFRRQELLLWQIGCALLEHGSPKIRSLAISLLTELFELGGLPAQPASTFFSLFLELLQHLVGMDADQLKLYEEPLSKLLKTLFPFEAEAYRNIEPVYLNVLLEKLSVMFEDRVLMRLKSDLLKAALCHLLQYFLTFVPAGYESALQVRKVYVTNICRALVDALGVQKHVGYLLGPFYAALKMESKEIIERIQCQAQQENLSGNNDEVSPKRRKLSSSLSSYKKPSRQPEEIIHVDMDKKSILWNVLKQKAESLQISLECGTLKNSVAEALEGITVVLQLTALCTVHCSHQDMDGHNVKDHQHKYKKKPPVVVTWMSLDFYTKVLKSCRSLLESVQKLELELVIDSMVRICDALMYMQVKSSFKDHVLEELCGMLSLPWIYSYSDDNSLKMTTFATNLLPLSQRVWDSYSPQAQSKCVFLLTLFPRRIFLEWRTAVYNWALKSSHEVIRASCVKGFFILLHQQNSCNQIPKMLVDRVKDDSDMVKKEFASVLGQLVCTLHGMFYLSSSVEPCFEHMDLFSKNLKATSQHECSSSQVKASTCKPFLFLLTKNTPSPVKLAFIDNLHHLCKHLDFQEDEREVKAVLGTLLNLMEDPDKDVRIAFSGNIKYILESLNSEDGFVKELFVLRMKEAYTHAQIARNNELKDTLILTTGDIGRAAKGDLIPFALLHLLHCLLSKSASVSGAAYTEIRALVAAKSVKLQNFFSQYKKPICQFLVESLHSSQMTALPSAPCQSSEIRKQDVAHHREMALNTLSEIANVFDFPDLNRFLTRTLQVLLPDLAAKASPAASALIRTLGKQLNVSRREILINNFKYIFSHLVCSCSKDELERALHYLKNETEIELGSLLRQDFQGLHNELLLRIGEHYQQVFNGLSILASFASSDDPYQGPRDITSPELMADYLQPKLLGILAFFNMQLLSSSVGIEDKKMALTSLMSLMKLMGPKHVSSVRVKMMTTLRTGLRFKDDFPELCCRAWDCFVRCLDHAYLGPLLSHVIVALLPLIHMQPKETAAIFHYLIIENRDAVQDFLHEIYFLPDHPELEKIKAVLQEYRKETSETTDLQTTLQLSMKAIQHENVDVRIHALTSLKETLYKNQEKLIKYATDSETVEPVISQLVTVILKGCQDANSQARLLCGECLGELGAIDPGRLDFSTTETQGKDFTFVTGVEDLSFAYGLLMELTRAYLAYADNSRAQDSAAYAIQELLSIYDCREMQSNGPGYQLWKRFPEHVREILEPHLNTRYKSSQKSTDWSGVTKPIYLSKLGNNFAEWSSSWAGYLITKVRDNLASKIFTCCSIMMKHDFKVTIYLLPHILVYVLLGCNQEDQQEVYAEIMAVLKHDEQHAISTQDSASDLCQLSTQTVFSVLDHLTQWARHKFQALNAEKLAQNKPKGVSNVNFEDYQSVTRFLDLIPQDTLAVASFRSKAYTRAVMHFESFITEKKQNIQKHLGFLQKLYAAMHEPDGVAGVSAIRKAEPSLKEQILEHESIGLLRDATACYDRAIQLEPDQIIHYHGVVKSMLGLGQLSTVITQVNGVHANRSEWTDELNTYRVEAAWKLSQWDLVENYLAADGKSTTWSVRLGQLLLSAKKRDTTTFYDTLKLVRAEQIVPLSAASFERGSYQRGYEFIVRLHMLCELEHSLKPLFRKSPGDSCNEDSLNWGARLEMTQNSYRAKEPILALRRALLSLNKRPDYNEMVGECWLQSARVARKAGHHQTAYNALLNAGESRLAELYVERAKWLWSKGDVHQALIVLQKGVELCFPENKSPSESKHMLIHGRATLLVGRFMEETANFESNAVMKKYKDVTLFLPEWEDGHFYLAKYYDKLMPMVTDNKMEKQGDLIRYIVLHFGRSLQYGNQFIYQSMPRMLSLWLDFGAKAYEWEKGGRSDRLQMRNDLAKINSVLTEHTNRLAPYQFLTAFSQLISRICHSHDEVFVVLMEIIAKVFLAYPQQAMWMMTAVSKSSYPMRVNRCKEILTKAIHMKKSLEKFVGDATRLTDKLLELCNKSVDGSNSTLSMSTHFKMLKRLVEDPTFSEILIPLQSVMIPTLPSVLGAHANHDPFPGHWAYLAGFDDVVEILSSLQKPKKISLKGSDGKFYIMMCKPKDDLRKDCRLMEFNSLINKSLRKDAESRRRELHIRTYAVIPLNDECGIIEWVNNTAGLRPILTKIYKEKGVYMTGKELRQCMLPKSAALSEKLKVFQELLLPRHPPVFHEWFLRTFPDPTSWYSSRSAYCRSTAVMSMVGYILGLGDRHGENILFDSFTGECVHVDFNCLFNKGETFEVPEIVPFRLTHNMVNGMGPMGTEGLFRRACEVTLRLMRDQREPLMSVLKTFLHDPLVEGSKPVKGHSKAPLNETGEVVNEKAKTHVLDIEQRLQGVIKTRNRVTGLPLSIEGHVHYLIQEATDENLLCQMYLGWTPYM

## ATR (ATM and Rad3-related kinase)
  phosphorylation of H2AX, CHK1 and CHK2 (immunoblot and FACS in Dox-iETAA1 ESCs): ATR activation through ETAA1 expression leads to the phosphorylation of H2AX and CHK1 but not CHK2 in ESCs
